From patent US20040029280A1

Experiments:
[1] = molecular target: Recombinant trimeric Ad5 knob protein with an N-terminal 6-His tag (adenovirus type 5 (Ad5)) (UniProt P11818); test: ELISA on His-tagged Ad5 knob on Ni-NTA strips, detection with anti-FGF2 antibody and anti-rabbit HRP; control
[2] = molecular target: recombinant Ad5 knob (knob domain of the adenovirus type 5 fiber protein) (adenovirus type 5 (Ad5)) (UniProt P11818); test: Biacore analysis
[3] = molecular target: adenoviral fiber knob on AdCMVLuc (Ad5 vector) virions (adenovirus type 5 (Ad5)) (UniProt P11818); test: cell-based or functional assay
FGF receptors = test: cell-based or functional assay
[4] = molecular target: Recombinant trimeric Ad5 knob protein with an N-terminal 6-His tag (adenovirus type 5 (Ad5)) (UniProt P11818); test: ELISA on His-tagged Ad5 knob on Ni-NTA strips, detection with anti-FGF2 antibody and anti-rabbit HRP; wells without knob gave 0.35+0.04

FGF2 mutein (C96S) (from UniProt P09038 1-155) (ligand)
absorbance [1]: 1.55 absorbance

Fab fragment of 1D6.14 anti-Ad5 knob neutralizing antibody
Kd [2]: 2.1 nM | block of AdCMV-Luc transduction (luciferase), CVU-1 cells [3]: 20% | block of AdCMV-Luc transduction (luciferase), KS-SLK cells [3]: > 50% | block of AdCMV-Luc transduction (luciferase), KSY-1 cells [3]: > 50% | block of AdCMV-Luc transduction (luciferase), RW376 cells [3]: > 50% | inhibition of AdCMVLuc infection (luciferase), 3T3 cells [3]: 97% | inhibition of AdCMVLuc infection (luciferase), D54 MG cells [3]: 98.3% | inhibition of AdCMVLuc infection (luciferase), PANC-1 cells [3]: 98.8% | inhibition of AdCMVLuc infection (luciferase), SKOV3.1p1 cells [3]: 69.3% | inhibition of AdCMVLuc transfection (luciferase), HUVECs [3]: 87%

Fab-FGF2 conjugate (1D6.14 Fab chemically conjugated to FGF2 C96S mutein) (from UniProt P09038 1-155)
inhibition by anti-FGF2 antibody of infection by the Ad-Fab-FGF2 complex (luciferase), 3T3 cells (FGF receptors): 96.1% | inhibition by anti-FGF2 antibody of infection by the Ad-Fab-FGF2 complex (luciferase), D54 MG cells (FGF receptors): 94% | inhibition by anti-FGF2 antibody of infection by the Ad-Fab-FGF2 complex (luciferase), PANC-1 cells (FGF receptors): 96.3% | inhibition by anti-FGF2 antibody of infection by the Ad-Fab-FGF2 complex (luciferase), SKOV3.1p1 cells (FGF receptors): 90.1% | absorbance [4]: 3.7 absorbance
